Publication doi:10.1101/2024.09.18.613542 (bioRxiv, 2024)
Residue numbers refer to the chain shown, from its start. Read-outs that look alike come from different tables or passages of the source.

Key:
Assay in all cases: ELISA
8His-TEV-RoxP_1 = biological target: T1, 8His-TEV-RoxP_1 (Cutibacterium acnes KPA171202)
T1 chain: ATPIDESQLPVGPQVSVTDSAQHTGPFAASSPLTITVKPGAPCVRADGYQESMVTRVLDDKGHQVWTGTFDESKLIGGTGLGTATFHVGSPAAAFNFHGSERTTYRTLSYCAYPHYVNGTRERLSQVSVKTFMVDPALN

RoxP_11-tagless = biological target: T2, RoxP_11-tagless (Cutibacterium porci (WP_154564006.1))
T2 chain: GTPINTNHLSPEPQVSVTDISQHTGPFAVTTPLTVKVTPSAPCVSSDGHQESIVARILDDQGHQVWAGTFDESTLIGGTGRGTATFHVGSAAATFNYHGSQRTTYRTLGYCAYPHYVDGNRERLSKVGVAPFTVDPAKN

[1] = biological target: T3, endogenous RoxP secreted by C. acnes strain ATCC 6919 (Cutibacterium acnes ATCC 6919 …, UniProt Q6A6F6, strain)
[2] = biological target: T4, endogenous RoxP secreted by C. acnes strain KPA171202 (Cutibacterium acnes KPA171202, UniProt Q6A6F6)
[3] = biological target: T3, endogenous RoxP secreted by C. acnes …; remark: listed apart in the source
[4] = biological target: T4, endogenous RoxP secreted by C. acnes …; remark: listed apart in the source

B1: 3E10E3 (antibody, V domains shown)
VH: QVTLKESGPGILQPSQTLSLTCSFSGFSLSTYGIGVGWIRQPSGKGLEWLAHIWWNDNKYYNTALKSRLTISKDTSNNQVFLKIASVDTADTATYYCARSLPYFDYWGQGTTLTVSS
VL: DIQMTQSPASLSASVGETVTITCRASENIYSYLAWYQQKQGKSPQFLVYNAKTLAEGVPSRFSGSGSGTQFSLKINSLQPEDFGSYYCQHHYGIPRTFGGGTKLEIK
- binding result (8His-TEV-RoxP_1): binds
- binding result (RoxP_11-tagless): binds

B2: 2H2F3 (antibody, V domains shown)
VH: QVQLQQSGAELVRPGVSVKISCKGSGYTFTDYAMHWVKQSHAKSLEWIGIISTYYGNASYNQKFKGKATMTVDKSSSTAYMELARLTSEDSAIYYCARVPYYGSSYAMDYWGQGTSVTVSS
VL: DVLMTQTPLSLPVSLGDQASISCRSSQNIVHSDGNTYLEWYLQKPGQSPKLLIYKVSNRFSGVPDRFSGSGSGTDFTLKISRVEAEDLGVYYCFQGSHVPWTFGGGTKLEIK
- binding result (8His-TEV-RoxP_1): binds

B3: 5F3D11 (antibody, V domains shown)
VH: not shown
VL: B2 VL with L3V, N28S, I29L, D33N, E39H, Y92F, F94S, G96S, S97T, W101P
- binding result (8His-TEV-RoxP_1): binds

B4: biotinylated-2H2F3 (antibody, V domains shown)
VH: B2 VH
VL: B2 VL
- binding result [1]: binds
- binding result [2]: binds

B5: 4D8H1 (antibody, V domains shown)
VH: EVKLLESGGGLVQPGGSLKLSCAASGFDFSRYWMSWVRQAPGKGLEWIGEINPDSSTINYTPSLKDKFIISRDNAKNTLYLQMSKVRSEDTALYYCARYYSRFAYWGQGTLVTVSA
VL: QAVVTQESALTTSPGETVTLTCRSSTGAVTTRNYANWVQEKPDHLFTGLIGDTNNRAPGVPARFSGSLIGDKAALTITGAQTEDEAIYFCALWYSNHWVFGGGTKLTVL
- binding result [3]: binds
- binding result [4]: binds
- binding result (8His-TEV-RoxP_1): binds
- binding result (RoxP_11-tagless): no binding (tested: 155 ng/mL)
